Experimental findings from article PMC6276879 (The EMBO Journal, 2018) are described below.

In the experiment the target is T1, phosphorylated ubiquitin (UniProt P0CG48 1-76, phosphorylated by PINK1 (pUb); the residue is not given).
T1 construct: ubiquitin, phosphorylated by PINK1 (pUb); also called pUb; phospho-ubiquitin; source: E. coli BL21(DE3)CodonPlus-RIL; phosphorylated with Pediculus humanus PINK1, purified (Superdex 75)
The experiment in a line: SEC; 1.5-fold excess pUb over R0RBR in 20 mM Tris, 75 mM NaCl, 250 uM TCEP, pH 8; 1:1 complex purified on Superdex 75 10/300. As to conditions: both partners purified.

B1: R0RBR parkin (141-465) (domain or fragment, human, UniProt O60260 141-465, looked up)
chain: SIYNSFYVYCKGPCQRVQPGKLRVQCSTCRQATLTLTQGPSCWDDVLIPNRMSGECQSPHCPGTSAEFFFKCGAHPTSDKETSVALHLIATNSRNITCITCTDVRSPVLVFQCNSRHVICLDCFHLYCVTRLNDRQFVHDPQLGYSLPCVAGCPNSLIKELHHFRILGEEQYNRYQQYGAEECVLQMGGVLCPRPGCGAGLLPEPDQRKVTCEGGNGLGCGFAFCRECKEAYHEGECSAVFEASGTTTQAYRVDERAAEQARWEAASKETIKKTTKPCPRCHVPVEKNGGCMHMKCPQPQCRLEWCWNCGCEWNRVCMGDHWFDV
notes: parkin, human, residues 141-465 (R0RBR: RING0-RING1-IBR-RING2(Rcat)); also called R0RBR C-terminal region of parkin; source: E. coli BL21(DE3), purified (HisTrap, Ulp1 cleavage, HisTrap, Superdex 75); not shown: His-smt3, N-terminal, cleaved
As to B1, the binding result is reported as “binds”.
